Values of other authors in PMC7699679.

Tests used:
[1] = biological target: CXCR2 (Homo sapiens) (UniProt P25025)
[2] = biological target: CXCR1 (Homo sapiens) (UniProt P25024)
[3] = biological target: CCR2 (Homo sapiens) (UniProt P41597)
[4] = biological target: C5aR (Homo sapiens) (UniProt P21730)
Sequence of UniProt P21730 (P21730 whole entry): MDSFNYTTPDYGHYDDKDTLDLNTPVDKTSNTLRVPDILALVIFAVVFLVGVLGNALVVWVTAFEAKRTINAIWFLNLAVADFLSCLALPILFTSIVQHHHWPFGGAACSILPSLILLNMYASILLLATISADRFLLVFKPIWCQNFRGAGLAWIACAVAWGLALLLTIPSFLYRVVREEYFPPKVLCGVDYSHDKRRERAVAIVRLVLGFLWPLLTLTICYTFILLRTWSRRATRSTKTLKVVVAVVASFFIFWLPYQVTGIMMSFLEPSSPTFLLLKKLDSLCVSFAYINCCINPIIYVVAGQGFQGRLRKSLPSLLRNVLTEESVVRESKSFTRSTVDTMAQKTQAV

Sequence of UniProt P25024 (P25024 whole entry): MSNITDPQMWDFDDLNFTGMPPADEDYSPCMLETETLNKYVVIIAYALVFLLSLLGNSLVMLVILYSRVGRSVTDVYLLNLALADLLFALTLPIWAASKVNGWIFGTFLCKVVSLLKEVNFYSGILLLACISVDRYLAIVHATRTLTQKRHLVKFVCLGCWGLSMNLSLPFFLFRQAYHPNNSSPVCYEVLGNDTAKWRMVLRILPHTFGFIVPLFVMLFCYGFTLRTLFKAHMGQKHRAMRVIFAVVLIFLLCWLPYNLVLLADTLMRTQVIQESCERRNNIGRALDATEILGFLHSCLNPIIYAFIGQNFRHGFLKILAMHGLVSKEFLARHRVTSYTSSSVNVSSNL
Sequence of UniProt P25025 (P25025 whole entry): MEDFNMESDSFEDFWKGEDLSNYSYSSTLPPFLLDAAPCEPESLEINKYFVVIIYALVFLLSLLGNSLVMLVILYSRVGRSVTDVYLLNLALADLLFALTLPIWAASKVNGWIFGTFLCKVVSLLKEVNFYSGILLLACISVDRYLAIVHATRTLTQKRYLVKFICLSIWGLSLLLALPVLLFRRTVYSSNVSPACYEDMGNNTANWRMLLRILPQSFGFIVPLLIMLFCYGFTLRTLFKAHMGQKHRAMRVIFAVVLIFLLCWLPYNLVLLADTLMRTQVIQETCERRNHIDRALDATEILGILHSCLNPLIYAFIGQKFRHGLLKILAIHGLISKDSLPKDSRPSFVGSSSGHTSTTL
Sequence of UniProt P41597 (P41597 whole entry): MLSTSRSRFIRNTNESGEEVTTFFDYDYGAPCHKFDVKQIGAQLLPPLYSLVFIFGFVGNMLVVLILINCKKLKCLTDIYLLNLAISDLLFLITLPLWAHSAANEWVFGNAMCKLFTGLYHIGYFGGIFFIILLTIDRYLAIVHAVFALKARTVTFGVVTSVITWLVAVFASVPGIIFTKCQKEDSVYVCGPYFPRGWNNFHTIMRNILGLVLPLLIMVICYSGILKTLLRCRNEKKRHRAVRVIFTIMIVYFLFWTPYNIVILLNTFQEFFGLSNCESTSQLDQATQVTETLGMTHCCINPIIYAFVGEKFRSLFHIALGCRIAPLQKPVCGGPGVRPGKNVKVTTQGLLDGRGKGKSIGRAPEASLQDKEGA

## HlgA (from UniProt Q5HDD6)
[1]
  Kd: 27.2 nM
[2]
  Kd: 5.69 nM
[3]
  Kd: 3.51 nM

## HlgC (from UniProt Q07227)
[4]
  Kd: 5.64 nM
